Experimental data: the nanobody polyreactivity screen of Harvey et al. (2022)

Test: yeast display, Sf9 membrane polyspecificity reagent, FACS + sequencing; frameworks hold sequencing errors
Method in brief: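 Galactose induction of a Saccharomyces cerevisiae BJ5465 synthetic nanobody display library ran 36–48 hours. The cells were then stained for 1 hour at 4 °C with 10% biotinylated, detergent-solubilized Sf9 membrane reagent, pulled down on streptavidin microbeads and FACS-sorted into low and high (top ~1%) gates on expression and reagent-binding fluorescence. Labels for polyreactivity follow the gate of origin.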
With “QVQLVESGGGLVQAGGSLRLSCAASGSIFGRNTMGWYRQAPGKERELVAAIDSSGGSTYYADSVKGRFTISRDNAKNTVYLQMNSLKPEDTAVYYCAAESRYATKSGYGLVLYYYWGQGTQVTVSS” the “polyreactivity (PSR sort gate)” value was “high polyreactivity”. For “QVQLVESGGGLVQAGGSLRLSCAASGSIFGRYAMGWSRQAPGKERELVAAISRGGSTNYADSVKGRFTISRDNAKNTVYLQMNSLKPEDTAVYYCNRKPYYVSSTRYDYWGQGTQVTVAS”, the “polyreactivity (PSR sort gate)” value was “high polyreactivity”. In the case of “QVQLVESGGGLVQAGGSLRLSCAASGSIFGRYAMGWYRQAPGKEREFVAAINRSTGSTYYADSVKGRFTISRDNAKNTVYLQMNSLKPEDTAVYYCAARSHSPGYNRRIRGYWGQGTQVTVSS”, the “polyreactivity (PSR sort gate)” value is reported as “high polyreactivity”. With “QVQLVESGGGLVQAGGSLRLSCAASGSIFGRYAMGWYRQAPGKERELVASINWNSGSTYYADSVKGRFTISRDNAKNTVYLQMNSLKPEDTAVYYCAAAALGYYGYWGQGTQVTVSS” the “polyreactivity (PSR sort gate)” value was “low polyreactivity”. In the case of “QVQLVESGGGLVQAGGSLRLSCAASGSIFGRYAMGWYRQAPGTERELVAAISSGGITYYADSVKGRFTISRDNAKNTVYLQMNSLTPEDTAVYYCAVKYLSWYAKYDSWGQGTQVTVSS”, the “polyreactivity (PSR sort gate)” value is reported as “high polyreactivity”. With “QVQLVESGGGLVQAGGSLRLSCAASGSIFGRYGKGWYRQAPGKERELVAAITSGTRTNYADSVKGRFTISRDNAKITVYLQMNSLTPEDTAVYYSAKQSYRRLPNTPYNYWGQGTQVTVSS” the “polyreactivity (PSR sort gate)” value was “low polyreactivity”. For “QVQLVESGGGLVQAGGSLRLSCAASGSIFGRYGMGWYRQAPGKERELVAAITSGTRTNYADSVKGRFTISRDNAKNTVYLQLNSLKPEDTAVYYCNALRLRGNYEYGYWGLGTQVTVSS”, the “polyreactivity (PSR sort gate)” value was “low polyreactivity”. For “QVQLVESGGGLVQAGGSLRLSCAASGSIFGRYTMGWYRQAPGKERELVAAINRSGGSTSYADSVKGRFTISRDNAKNTVYLQMNSLKPEDTAVYYCNRARSVPQFYGTYGFGYDYWGQGTQVTVSS”, the “polyreactivity (PSR sort gate)” value was “low polyreactivity”. In the case of “QVQLVESGGGLVQAGGSLRLSCAASGSIFGRYTMGWYRQAPGKERELVAAISWGGGSTYYADSVKGRFTISRDNAKNTVYLQMNSLKREDTAVYYCDADTYWAIDPIYDYWGQGTQVTVSS”, the “polyreactivity (PSR sort gate)” value is reported as “low polyreactivity”. For “QVQLVESGGGLVQAGGSLRLSCAASGSIFGRYVMGWYRQAPGKERELVAAISGSGTSTYYADSVKGRFTISRDNAKNTVFLQMNSLKPEDTAVYYCAARDIKSSHDYDYWGQGTQVTVSS”, the “polyreactivity (PSR sort gate)” value was “low polyreactivity”. In the case of “QVQLVESGGGLVQAGGSLRLSCAASGSIFGSNAMGWYRPAPGKERELVAAITNTGRTNYADSVKGRFTISRDNAKNTVYLQMNSLKPEDTAVYYCYTDGYEFTHFVGGWYQIIDYDYWGQGTQVTVSS”, the “polyreactivity (PSR sort gate)” value is reported as “low polyreactivity”. For “QVQLVESGGGLVQAGGSLRLSCAASGSIFGSNAMGWYRQAPGKERELVAAISVRDGSTSYADSVKGRFTISRDNAKNTVYLQMNSLKPEDPAVYYCTAKSLAERYYRPEMDYWGQGTQVTVSS”, the “polyreactivity (PSR sort gate)” value was “low polyreactivity”. With “QVQLVESGGGLVQAGGSLRLSCAASGSIFGSNAMGWYRQAPGKERELVAAITNTGRTNYADSVKGRFTISRDYAKNTVYLQMNSLKPEDTAVYYCNADWRRSHAYGYWGQGTQVTVSS” the “polyreactivity (PSR sort gate)” value was “low polyreactivity”. In the case of “QVQLVESGGGLVQAGGSLRLSCAASGSIFGSNAMGWYRQAPGKERELVAANSKSGGSTYYADSVKGRFTISRDNAKITVYLQMNSLKPEDTAVYYCNARWWVVTFYGRYEGDYWGQGTQVTVSS”, the “polyreactivity (PSR sort gate)” value is reported as “low polyreactivity”. For “QVQLVESGGGLVQAGGSLRLSCAASGSIFGSNAMGWYRRAPGKERELVAVINASGASTYYADSVKGRFTISRDNAKNTVYLQKNSLKPEDTAVYYCAKDPFPFPGGDYWGQGTQVTVSS”, the “polyreactivity (PSR sort gate)” value was “low polyreactivity”. With “QVQLVESGGGLVQAGGSLRLSCAASGSIFGSYAMGWYRQAPGKERELVAAISKSGGNTYYADSVKGRFTISRDNAKNTVYLQMNSLKPEDTAVYYCAAYGFYRWRGYDYWGQGTQVTVSS” the “polyreactivity (PSR sort gate)” value was “high polyreactivity”. In the case of “QVQLVESGGGLVQAGGSLRLSCAASGSIFGSYTMGWYRQAPGKERELVAAITTSGSSTYYADSVKGRFTISRDNAKNTVYLQMNSLKPEDTAVYYCSAEYYVTYPPYGWYDYWGHGTQVTVSS”, the “polyreactivity (PSR sort gate)” value is reported as “high polyreactivity”. In the case of “QVQLVESGGGLVQAGGSLRLSCAASGSIFGSYVMGGYRQAPGKERELVATITNGGSTYYADSVKGRFTISRDNAKNTVYLQMNSLKPEDTAVYYCAADGRGDLYVWPGIGGDYWGQGTQVTVSS”, the “polyreactivity (PSR sort gate)” value is reported as “low polyreactivity”. With “QVQLVESGGGLVQAGGSLRLSCAASGSIFGTNAMGWYIQAPGKEREFVATISSRTGSTYYADSVKGRFTFSRDNAKNTVYLQMNSLKPEDTAVYYCAAVRWYGKYDYWGQGTQVTVSS” the “polyreactivity (PSR sort gate)” value was “low polyreactivity”. In the case of “QVQLVESGGGLVQAGGSLRLSCAASGSIFGTYAMGWYRQAPGKARELVAAITGSGGRTYYADSVKGRFTISRDNAKNTVYLQMNSLKPEDTAVYYCNKVVYVRSYPPRYDYWGQGTQVTVSS”, the “polyreactivity (PSR sort gate)” value is reported as “high polyreactivity”. In the case of “QVQLVESGGGLVQAGGSLRLSCAASGSIFGTYAMGWYRQAPGKERELVAAISWSDGSTYYADSVKGRFTISRDNAKNTVYLQMNSLKPEDTAVYYCAKVYRSIGPNVSRYGLSYYYWGQGTQVTVSS”, the “polyreactivity (PSR sort gate)” value is reported as “low polyreactivity”. In the case of “QVQLVESGGGLVQAGGSLRLSCAASGSIFGTYAMGWYRQAPGKERELVAAITGSGGRTYYADSVKGRFTISRDNAKNTVYLQMNSLKPEDTAVYYCNKVVYVRSYPPRYDYWGQGTQVSVSS”, the “polyreactivity (PSR sort gate)” value is reported as “high polyreactivity”. For “QVQLVESGGGLVQAGGSLRLSCAASGSIFGTYAMRWYIQAPGKERDLVATISYGDGYTYYADSVKGRFTISRDNAKNTVYLLMNSLKPEDTPVYYCNTGVFSSGGPLVYWGEGTQVTVSS”, the “polyreactivity (PSR sort gate)” value was “low polyreactivity”. In the case of “QVQLVESGGGLVQAGGSLRLSCAASGSIFGVNMGWYRQAPGKERELVASITSGGSTNYADSVKGRFTISRDNAKNTVYLQMNSLKPEDTAVYYCATDRYVWGQGTQVTVSS”, the “polyreactivity (PSR sort gate)” value is reported as “low polyreactivity”. With “QVQLVESGGGLVQAGGSLRLSCAASGSIFGVYAMGLYRQAPGKERELVASIDTSTGSTYYADSVKGRFTISRDNAKNTVYLQMNSLKPEDTAVYYCNADVGYYFTFEYWGQGTQVTVSS” the “polyreactivity (PSR sort gate)” value was “high polyreactivity”. In the case of “QVQLVESGGGLVQAGGSLRLSCAASGSIFGVYAMGWYRQAPGKERELVAGITFGDSTTYYADSVKGRFTISRDNAKNTVYLQMNSLKPEDTAVYYCAADNRWEDYKVDYWGQGTQVTVSS”, the “polyreactivity (PSR sort gate)” value is reported as “low polyreactivity”. For “QVQLVESGGGLVQAGGSLRLSCAASGSIFGVYAMGWYRQAPGKERELVAVITYRDGSTYYADSVKGRFTISRVNAKNTVYLQMNSLKPEDSAVYYCAADSYLGWHSDYGVEYYYWGQGTQVTVSS”, the “polyreactivity (PSR sort gate)” value was “low polyreactivity”. For “QVQLVESGGGLVQAGGSLRLSCAASGSIFGVYDMGWYRQAPGKERELVAVINSNGGSTYYADSVKGRFTISRDNAKNTVYLQMNSLKPEDTAVYYCAAERATVKFGYWGQGTQVTVSS”, the “polyreactivity (PSR sort gate)” value was “low polyreactivity”. In the case of “QVQLVESGGGLVQAGGSLRLSCAASGSIFGYNARGWYRQAPGKERELVATINWSGTSTYYAASVKGRFTISRDNAKNTVYLQMNSLKPVDTAVYYCNAKYLWYGRYNYWGQGTQVTVSS”, the “polyreactivity (PSR sort gate)” value is reported as “high polyreactivity”. For “QVQLVESGGGLVQAGGSLRLSCAASGSIFGYNTMGWYREAPGKERELVAAISYRGGSTYADSVKGRFTISRDNAKNTVYLQLNSLKPEDTAVYYSAATSYTATWRYYYWGQGTQVTVSS”, the “polyreactivity (PSR sort gate)” value was “high polyreactivity”. In the case of “QVQLVESGGGLVQAGGSLRLSCAASGSIFGYNVMGWYRQAPGKERELVAAITYSGGSTYYADSVKGRFTISRDNAKNTVYLQMNSQKQEDTAVYYCAKVTGRRFPAYGYDHWGQGTQVTVSS”, the “polyreactivity (PSR sort gate)” value is reported as “high polyreactivity”. For “QVQLVESGGGLVQAGGSLRLSCAASGSIFGYYALGWSRPAPGKERELVASITSGDSTNYADSVKGRFTISRDNAKKTVYLQMNSQKPEDTAVYYCTTERGDYDEYDYWGQGTQVTVSS”, the “polyreactivity (PSR sort gate)” value was “low polyreactivity”. For “QVQLVESGGGLVQAGGSLRLSCAASGSIFGYYAMGWYRQAPGKERELVAAINSSGGSTYYADSVKGRFTISRDNAKNTVYLQMNSLKPDDTAVYYCAVRTRYKFNYWGQGTQVTVSS”, the “polyreactivity (PSR sort gate)” value was “low polyreactivity”. For “QVQLVESGGGLVQAGGSLRLSCAASGSIFGYYAMGWYRQAPGKERELVAAISVSGGSTYYADSVKGRFTISRDNAKNTVYLQMNSLKPEDTAVYYCKKVQGSWRVPYYYWGQGTQVTVSS”, the “polyreactivity (PSR sort gate)” value was “high polyreactivity”. In the case of “QVQLVESGGGLVQAGGSLRLSCAASGSIFGYYAMGWYRQAPGKERELVAAITRSGGSTYYADSVKGRFTISRDNAKNTVYLQMNSLKPEDTAVYYCNAVRYAVRLPAFPGYDYWGQGTQVTVSS”, the “polyreactivity (PSR sort gate)” value is reported as “high polyreactivity”. With “QVQLVESGGGLVQAGGSLRLSCAASGSIFGYYAMGWYRQAPGKERELVAAITWNADGTYYADSVKGRFTISRDNAKNTVYLQMNSLKPEDTAVYYCAADQYYQDWGGGYDYWGQGTQVTVSS” the “polyreactivity (PSR sort gate)” value was “low polyreactivity”. With “QVQLVESGGGLVQAGGSLRLSCAASGSIFGYYAMGWYRQAPGKERELVAAITWSGDSTYYADSVKGRFTISRDNAKNTVYLQMNSLKPEDTAVYYCAARQFVHTRYFSFGYWGQGTQVTVSS” the “polyreactivity (PSR sort gate)” value was “low polyreactivity”. For “QVQLVESGGGLVQAGGSLRLSCAASGSIFGYYAMGWYRQAPGKERELVAAITYSGGNTNYADSVKGRFTISRDNAKNTVYLQMNSLKPEDTAVYYCAARKNYQAVYARRTRYYYWGQGTQVTVSS”, the “polyreactivity (PSR sort gate)” value was “high polyreactivity”. In the case of “QVQLVESGGGLVQAGGSLRLSCAASGSIFGYYAMGWYRQAPGKERELVARISYSGGTTYYADSVKGRFTISRDNAKNTVYLQMNSLKPEDTAVYYCNARIPYSWRYGYWGQGTQVTVSS”, the “polyreactivity (PSR sort gate)” value is reported as “high polyreactivity”. In the case of “QVQLVESGGGLVQAGGSLRLSCAASGSIFGYYAMGWYRQAPGKERELVAVITRSGGSTYYADSVKGRFTISRDNAKNTVYLQMNSLKPEDTAVYYSNAKSDYGYKMYYWGQGTQVTVSS”, the “polyreactivity (PSR sort gate)” value is reported as “high polyreactivity”. In the case of “QVQLVESGGGLVQAGGSLRLSCAASGSIFGYYAMGWYRQAPGKERELVAVITSSGGGTYYADSVKGRFTISRDNAKNTVYLQMNSLKPEDTAVYYCAKLGTRRYDSWGQGTQVTVSS”, the “polyreactivity (PSR sort gate)” value is reported as “high polyreactivity”. For “QVQLVESGGGLVQAGGSLRLSCAASGSIFGYYGMGWYRQAPGKERELVATITSGGSTNYADSVKGRFTISRDNAKNTVYLQMNSLKPEDTAVYYCARQYGYQPERYGYWGQGTQVTVSS”, the “polyreactivity (PSR sort gate)” value was “low polyreactivity”. In the case of “QVQLVESGGGLVQAGGSLRLSCAASGSIFGYYTMGWYRQAPGKERELVATITSGGSTYYADSVKGRFTISRDNAKNTDYLQMNSLKPEDTAVYYCNARTAQNVVLYDFGYWGQGTQVTVSS”, the “polyreactivity (PSR sort gate)” value is reported as “high polyreactivity”.
